Measured values: patent publication US20110229981A1
Each block holds one substance with its values, some of them ahead of it.

Experiments:
[1] = biological target: CD31 solubilized from Jurkat T cell lysates and captured on PECAM 1.2-coupled CBA beads (human) (UniProt P16284); experiment: co-capture on PECAM 1.2 CBA beads from Jurkat lysate, anti-CD28-PE, flow cytometry; antibody CD31 treatment (CD3 + CD31 crosslink)
[2] = biological target: CD31 solubilized from Jurkat T cell lysates and captured on PECAM 1.2-coupled CBA beads (human) (UniProt P16284); experiment: co-capture on PECAM 1.2 CBA beads from Jurkat lysate, anti-CD28-PE, flow cytometry; positive pY control (Na3VO4/H2O2)
[3] = biological target: CD31 solubilized from Jurkat T cell lysates and captured on PECAM 1.2-coupled CBA beads (human) (UniProt P16284); experiment: co-capture on PECAM 1.2 CBA beads from Jurkat lysate, anti-CD28-PE, flow cytometry; negative control (unstimulated)
[4] = biological target: CD31 solubilized from Jurkat T cell lysates and captured on PECAM 1.2-coupled CBA beads (human) (UniProt P16284); experiment: co-capture on PECAM 1.2 CBA beads from Jurkat lysate, anti-CD28-PE, flow cytometry; T-cell activation (CD3 crosslink)
[5] = biological target: CD31 solubilized from Jurkat T cell lysates and captured on PECAM 1.2-coupled CBA beads (human) (UniProt P16284); experiment: co-capture on PECAM 1.2 CBA beads from Jurkat lysate, anti-CD28-PE, flow cytometry; peptide CD31 treatment (CD3 crosslink + CD31 peptide)
[6] = biological target: CD31 solubilized from Jurkat T cell lysates and captured on PECAM 1.2-coupled CBA beads (human) (UniProt P16284); experiment: co-capture on PECAM 1.2 CBA beads from Jurkat lysate, anti-SHP2-PE, flow cytometry; positive pY control (Na3VO4/H2O2)
[7] = biological target: CD31 solubilized from Jurkat T cell lysates and captured on PECAM 1.2-coupled CBA beads (human) (UniProt P16284); experiment: co-capture on PECAM 1.2 CBA beads from Jurkat lysate, anti-SHP2-PE, flow cytometry; peptide CD31 treatment (CD3 crosslink + CD31 peptide)
[8] = biological target: CD31 solubilized from Jurkat T cell lysates and captured on PECAM 1.2-coupled CBA beads (human) (UniProt P16284); experiment: co-capture on PECAM 1.2 CBA beads from Jurkat lysate, anti-SHP2-PE, flow cytometry; T-cell activation (CD3 crosslink)
[9] = biological target: CD31 solubilized from Jurkat T cell lysates and captured on PECAM 1.2-coupled CBA beads (human) (UniProt P16284); experiment: co-capture on PECAM 1.2 CBA beads from Jurkat lysate, anti-SHP2-PE, flow cytometry; negative control (unstimulated)
[10] = biological target: CD31 solubilized from Jurkat T cell lysates and captured on PECAM 1.2-coupled CBA beads (human) (UniProt P16284); experiment: co-capture on PECAM 1.2 CBA beads; antibody CD31 treatment against CD3 crosslink conditions
[11] = biological target: CD31 solubilized from Jurkat T cell lysates and captured on PECAM 1.2-coupled CBA beads (human) (UniProt P16284); experiment: co-capture on PECAM 1.2 CBA beads; peptide CD31 treatment against CD3 crosslink conditions
[12] = biological target: CD31 solubilized from Jurkat T cell lysates and captured on PECAM 1.2-coupled CBA beads (human) (UniProt P16284); experiment: co-capture on PECAM 1.2 CBA beads from Jurkat lysate, anti-SHP2-PE, flow cytometry; antibody CD31 treatment (CD3 + CD31 crosslink)
[13] = biological target: CD31 solubilized from Jurkat T cell lysates and captured on PECAM 1.2-coupled CBA beads (human) (UniProt P16284); experiment: co-capture on PECAM 1.2 CBA beads from Jurkat lysate, anti-CD3-FITC, flow cytometry; antibody CD31 treatment (CD3 + CD31 crosslink)
[14] = biological target: CD31 solubilized from Jurkat T cell lysates and captured on PECAM 1.2-coupled CBA beads (human) (UniProt P16284); experiment: co-capture on PECAM 1.2 CBA beads from Jurkat lysate, anti-CD3-FITC, flow cytometry; positive pY control (Na3VO4/H2O2)
[15] = biological target: CD31 solubilized from Jurkat T cell lysates and captured on PECAM 1.2-coupled CBA beads (human) (UniProt P16284); experiment: co-capture on PECAM 1.2 CBA beads from Jurkat lysate, anti-CD3-FITC, flow cytometry; T-cell activation (CD3 crosslink)
[16] = biological target: CD31 solubilized from Jurkat T cell lysates and captured on PECAM 1.2-coupled CBA beads (human) (UniProt P16284); experiment: co-capture on PECAM 1.2 CBA beads from Jurkat lysate, anti-CD3-FITC, flow cytometry; negative control (unstimulated)

MFI CD28 [1]: 17100 MFI | MFI CD28 [2]: 3930 MFI | MFI CD28 [3]: 8160 MFI | MFI CD28 [4]: 25200 MFI | MFI CD28 [5]: 24300 MFI
Substance: CD28 (from UniProt P10747 19-220) (receptor)

MFI SHP-2 [6]: 193 MFI | MFI SHP-2 [7]: 185 MFI | MFI SHP-2 [8]: 90 MFI | MFI SHP-2 [9]: 165 MFI | increase of the amount of SHP-2 associated to CD31 [10]: 50% | increase of the amount of SHP-2 associated to CD31 [11]: 100% | MFI SHP-2 [12]: 149 MFI
Substance: SHP-2 (from UniProt Q06124 2-593) (enzyme)

MFI CD3 [13]: 2420 MFI | MFI CD3 [14]: 354 MFI | MFI CD3 [15]: 17900 MFI | MFI CD3 [16]: 197 MFI
Substance: CD3 (receptor)
